{"source": "patent US20220251546", "biological_target": "T1, IFIT5 (rhIFIT5) (Homo sapiens) (UniProt Q13325)", "T1 sequence": "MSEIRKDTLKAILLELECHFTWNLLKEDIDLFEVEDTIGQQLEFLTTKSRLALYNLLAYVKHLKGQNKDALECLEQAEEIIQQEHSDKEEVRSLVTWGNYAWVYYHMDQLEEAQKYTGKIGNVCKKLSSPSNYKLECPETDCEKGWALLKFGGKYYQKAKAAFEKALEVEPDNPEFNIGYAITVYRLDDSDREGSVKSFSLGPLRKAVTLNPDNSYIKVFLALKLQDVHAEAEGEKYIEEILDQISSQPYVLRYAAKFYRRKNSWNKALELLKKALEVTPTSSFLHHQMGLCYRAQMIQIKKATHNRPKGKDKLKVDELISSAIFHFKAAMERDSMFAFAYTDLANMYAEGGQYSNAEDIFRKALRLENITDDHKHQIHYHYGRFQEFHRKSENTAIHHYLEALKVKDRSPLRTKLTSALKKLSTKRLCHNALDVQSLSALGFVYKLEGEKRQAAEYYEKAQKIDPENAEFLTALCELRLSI", "experiment": "pulldown", "conditions": "5'-triphosphate; approx. 10-fold enrichment vs 16S rRNA, over 20-fold vs 23S rRNA by RT-qPCR"}
{"substance": "Listeria Lmo2210 mRNA and LhrC sRNA", "values": [{"measurement": "binding signal", "value": 10, "unit": "fold"}]}
